Experimental data taken from PMC10397247.
Like-named read-outs stand apart in the source and are kept apart here. Values belong to the binder of their own block, whether it stands above or below them.

How the values were obtained:
[1] = biological target: T1, 4H918-bH; experiment: two-hybrid library CCNG1;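 note: natural log of median RNA to DNA barcode read ratio; higher means stronger binding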
T1 chain: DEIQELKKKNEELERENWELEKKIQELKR

[2] = biological target: T2, 4H968-bH; experiment: two-hybrid library CCNG1;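 note: natural log of median RNA to DNA barcode read ratio; higher means stronger binding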
T2 chain: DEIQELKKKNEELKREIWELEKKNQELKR

[3] = biological target: T3, 4H457-bH; experiment: two-hybrid library CCNG1;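 note: natural log of median RNA to DNA barcode read ratio; higher means stronger binding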
T3 chain: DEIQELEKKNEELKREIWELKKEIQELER

[4] = biological target: T4, 4H797-bH; experiment: two-hybrid library CCNG1;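 note: natural log of median RNA to DNA barcode read ratio; higher means stronger binding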
T4 chain: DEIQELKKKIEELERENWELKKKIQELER

[5] = biological target: T5, 4H953-bH; experiment: two-hybrid library CCNG1;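 note: natural log of median RNA to DNA barcode read ratio; higher means stronger binding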
T5 chain: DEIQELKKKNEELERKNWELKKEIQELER

[6] = biological target: T6, 4H575-bH; experiment: two-hybrid library CCNG1;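 note: natural log of median RNA to DNA barcode read ratio; higher means stronger binding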
T6 chain: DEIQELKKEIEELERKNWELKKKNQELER

[7] = biological target: T7, 4H754-bH; experiment: two-hybrid library CCNG1
T7 chain: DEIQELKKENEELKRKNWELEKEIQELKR

[8] = biological target: T8, 4H850-bH; experiment: two-hybrid library CCNG1
T8 chain: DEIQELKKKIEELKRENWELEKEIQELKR

[9] = biological target: T9, 4H683-bH; experiment: two-hybrid library CCNG1
T9 chain: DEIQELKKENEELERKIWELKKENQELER

[10] = biological target: T10, 4H346-bH; experiment: two-hybrid library CCNG1
T10 chain: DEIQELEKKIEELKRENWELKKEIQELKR

[11] = biological target: T11, 4H4073-bH; experiment: two-hybrid library CCNG1
T11 chain: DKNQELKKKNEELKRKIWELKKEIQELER

[12] = biological target: T12, 4H780-bH; experiment: two-hybrid library CCNG1
T12 chain: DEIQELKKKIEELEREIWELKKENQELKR

[13] = biological target: T13, 4H855-bH; experiment: two-hybrid library CCNG1
T13 chain: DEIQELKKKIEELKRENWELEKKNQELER

[14] = biological target: T14, 4H3926-bH; experiment: two-hybrid library CCNG1
T14 chain: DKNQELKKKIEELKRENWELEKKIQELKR

[15] = biological target: T15, 4H780-bN; experiment: two-hybrid library CCNG1
T15 chain: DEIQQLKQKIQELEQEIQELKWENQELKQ

[16] = biological target: T16, 4H454-bH; experiment: two-hybrid library CCNG1
T16 chain: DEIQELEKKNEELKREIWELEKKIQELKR

[17] = biological target: T17, 4H3427-bH; experiment: two-hybrid library CCNG1
T17 chain: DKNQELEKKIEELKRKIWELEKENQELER

[18] = biological target: T18, 4H4001-bH; experiment: two-hybrid library CCNG1
T18 chain: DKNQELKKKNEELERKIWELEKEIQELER

[19] = biological target: T19, 4H3855-bH; experiment: two-hybrid library CCNG1
T19 chain: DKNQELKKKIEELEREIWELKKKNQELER

[20] = biological target: T20, 4H717-bH; experiment: two-hybrid library CCNG1
T20 chain: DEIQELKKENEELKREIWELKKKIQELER

[21] = biological target: T21, 4H883-bH; experiment: two-hybrid library CCNG1
T21 chain: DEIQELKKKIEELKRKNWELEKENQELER

[22] = biological target: T22, 4H568-bH; experiment: two-hybrid library CCNG1
T22 chain: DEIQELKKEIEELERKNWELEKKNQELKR

[23] = biological target: T23, 4H908-bH; experiment: two-hybrid library CCNG1
T23 chain: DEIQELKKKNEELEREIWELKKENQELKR

[24] = biological target: T24, 4H72-bH; experiment: two-hybrid library CCNG1
T24 chain: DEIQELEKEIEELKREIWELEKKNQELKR

[25] = biological target: T25, 4H607-bH; experiment: two-hybrid library CCNG1
T25 chain: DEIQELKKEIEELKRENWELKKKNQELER

[26] = biological target: T26, 4H3782-bH; experiment: two-hybrid library CCNG1
T26 chain: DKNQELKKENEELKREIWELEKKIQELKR

[27] = biological target: T27, 4H967-bH; experiment: two-hybrid library CCNG1
T27 chain: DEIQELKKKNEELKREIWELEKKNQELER

[28] = biological target: T28, 4H687-bH; experiment: two-hybrid library CCNG1
T28 chain: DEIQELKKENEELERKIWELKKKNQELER

[29] = biological target: T29, zCON9_B; experiment: two-hybrid library CCmax
T29 chain: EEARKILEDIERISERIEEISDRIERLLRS

[30] = biological target: T30, zCON9_D; experiment: two-hybrid library CCmax
T30 chain: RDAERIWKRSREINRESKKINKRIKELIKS

[31] = biological target: T31, 4H775-AA; experiment: two-hybrid library CCmax; conditions: mean of both orientations
T31 chain: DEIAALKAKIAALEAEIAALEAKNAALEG

[32] = biological target: T32, 4H662-AA; experiment: two-hybrid library CCmax; conditions: mean of both orientations
T32 chain: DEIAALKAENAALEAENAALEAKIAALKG

[33] = biological target: T33, 4H4038-AA; experiment: two-hybrid library CCmax; conditions: mean of both orientations
T33 chain: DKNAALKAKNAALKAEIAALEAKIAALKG

[34] = biological target: T34, 4H369-AA; experiment: two-hybrid library CCmax; conditions: mean of both orientations
T34 chain: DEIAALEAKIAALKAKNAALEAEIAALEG

[35] = biological target: T35, 4H3940-AA; experiment: two-hybrid library CCmax; conditions: mean of both orientations
T35 chain: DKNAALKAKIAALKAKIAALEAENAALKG

[36] = biological target: T36, 4H_BCR; experiment: two-hybrid library CCmax; conditions: mean of both orientations
T36 chain: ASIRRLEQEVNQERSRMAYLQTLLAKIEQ

[37] = biological target: T37, 4H451-AA; experiment: two-hybrid library CCmax; conditions: mean of both orientations
T37 chain: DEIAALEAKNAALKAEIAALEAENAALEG

[38] = biological target: T38, 4H816-AA; experiment: two-hybrid library CCmax; conditions: mean of both orientations
T38 chain: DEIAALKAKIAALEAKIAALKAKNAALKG

[39] = biological target: T39, 4H87-AA; experiment: two-hybrid library CCmax; conditions: mean of both orientations
T39 chain: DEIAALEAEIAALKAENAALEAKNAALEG

[40] = biological target: T40, O14-AA; experiment: two-hybrid library CCmax; conditions: mean of both orientations
T40 chain: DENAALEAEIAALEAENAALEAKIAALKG

[41] = biological target: T41, 4H43-AA; experiment: two-hybrid library CCmax; conditions: mean of both orientations
T41 chain: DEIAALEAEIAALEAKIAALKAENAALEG

[42] = biological target: T42, 4H3625-AA; experiment: two-hybrid library CCmax
T42 chain: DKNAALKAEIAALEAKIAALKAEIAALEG

[43] = biological target: T43, O13-AA; experiment: two-hybrid library CCmax; conditions: mean of both orientations
T43 chain: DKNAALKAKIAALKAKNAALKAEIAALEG

[44] = biological target: GCN2_T; experiment: two-hybrid library CCmax
[45] = biological target: T44, 4H3664-AA; experiment: two-hybrid library CCmax; conditions: mean of both orientations
T44 chain: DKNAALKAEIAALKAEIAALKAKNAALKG

[46] = biological target: T45, O11-AA; experiment: two-hybrid library CCmax; conditions: mean of both orientations
T45 chain: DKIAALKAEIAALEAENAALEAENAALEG

[47] = biological target: T46, 4H510-AA; experiment: two-hybrid library CCmax; conditions: mean of both orientations
T46 chain: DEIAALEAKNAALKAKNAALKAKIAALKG

[48] = biological target: T47, 4H_APH; experiment: two-hybrid library CCmax; conditions: mean of both orientations
T47 chain: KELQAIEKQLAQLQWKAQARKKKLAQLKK

[49] = biological target: T48, 4H55-AA; experiment: two-hybrid library CCmax; conditions: mean of both orientations
T48 chain: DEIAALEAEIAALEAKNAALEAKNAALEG

[50] = biological target: T49, 4H4033-AA; experiment: two-hybrid library CCmax; conditions: mean of both orientations
T49 chain: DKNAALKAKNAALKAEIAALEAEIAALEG

[51] = biological target: 4H_GCN4; experiment: two-hybrid library CCmax; conditions: mean of both orientations
Chain of 4H_GCN4 (chain, as listed by the source): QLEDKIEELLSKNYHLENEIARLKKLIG

[52] = biological target: T50, 4H3905-AA; experiment: two-hybrid library CCmax; conditions: mean of both orientations
T50 chain: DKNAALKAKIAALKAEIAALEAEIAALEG

[53] = biological target: T51, 4H384-AA; experiment: two-hybrid library CCmax; conditions: mean of both orientations
T51 chain: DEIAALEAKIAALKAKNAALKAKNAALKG

[54] = biological target: T52, 4H3922-AA; experiment: two-hybrid library CCmax; conditions: mean of both orientations
T52 chain: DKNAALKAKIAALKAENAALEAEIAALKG

[55] = biological target: T53, 4H390-AA; experiment: two-hybrid library CCmax; conditions: mean of both orientations
T53 chain: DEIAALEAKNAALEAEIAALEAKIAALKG

[56] = biological target: T54, 4H481-AA; experiment: two-hybrid library CCmax; conditions: mean of both orientations
T54 chain: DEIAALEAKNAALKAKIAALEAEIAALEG

[57] = biological target: T55, 4H953-bA; experiment: two-hybrid library CCNG1
T55 chain: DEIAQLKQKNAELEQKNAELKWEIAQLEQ

[58] = biological target: T56, 4H3112-bH; experiment: two-hybrid library CCNG1
T56 chain: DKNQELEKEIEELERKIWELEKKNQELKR

interaction score [1]: -3.17
interaction score [2]: -0.466
interaction score [3]: 0.311
interaction score [4]: 0.329
interaction score [5]: 0.155
interaction score [6]: -0.18
interaction score [7]: -0.0538
interaction score [8]: -3.53
interaction score [9]: -1.17
interaction score [10]: 0.99
interaction score [11]: -0.154
interaction score [12]: 0.0507
interaction score [13]: 0.532
interaction score [14]: 1.28
Binder: DEIQELEKKIEELKRENWELKKEIQELKR [4H346-bH]

interaction score [1]: -0.345
interaction score [2]: -0.828
interaction score [15]: -0.425
interaction score [16]: -0.546
interaction score [3]: -0.153
interaction score [4]: -0.726
interaction score [17]: 1.13
interaction score [18]: 0.717
interaction score [19]: 0.0459
interaction score [5]: -2.3
interaction score [20]: -0.417
interaction score [6]: 1.53
interaction score [21]: -1.42
interaction score [7]: -0.851
interaction score [22]: -1.66
interaction score [9]: -0.937
interaction score [23]: -0.797
interaction score [10]: -1.08
interaction score [24]: -0.0186
interaction score [11]: 0.194
interaction score [12]: 0.188
interaction score [25]: -1.37
interaction score [13]: -0.0661
interaction score [26]: -0.106
interaction score [27]: -1.41
interaction score [28]: -0.309
interaction score [14]: -0.169
Binder: DKNQELEKKIEELKRKIWELEKENQELER [4H3427-bH]

interaction score [29]: 2
interaction score ([30]; mean of both orientations): -1.44
Binder: EEARKILEDIERISERIEEISDRIERLLRS [zCON9_B]

interaction score [29]: -2.01
interaction score [30]: -2.12
Binder: PKKEAEELAEESEELHDRSEKLHERAEQ [zCON9_A]

interaction score [31]: 0.881
interaction score [32]: -1.3
interaction score [33]: 1.61
interaction score [34]: -0.703
interaction score [35]: -0.199
interaction score [36]: -1.17
interaction score [37]: -1.64
interaction score [38]: 1.38
interaction score [39]: -0.904
interaction score [40]: 1.44
interaction score [41]: 1.85
interaction score [42]: 2.27
interaction score [43]: -1.47
interaction score [44]: -0.674
interaction score [45]: -0.0768
interaction score [46]: -1.53
interaction score [47]: -1.93
interaction score [48]: -1.59
interaction score [49]: -1.29
interaction score [50]: -0.401
interaction score [51]: -0.702
interaction score [52]: 2.29
interaction score [53]: -1.24
interaction score [54]: 0.185
interaction score [55]: 1.54
interaction score [56]: -0.502
Binder: DKNAALKAEIAALEAKIAALKAEIAALEG [4H3625-AA]

interaction score [1]: -2.71
interaction score [2]: 0.0625
interaction score [3]: 0.658
interaction score [4]: -1.11
interaction score [17]: 0.496
interaction score [57]: -0.817
interaction score [5]: 0.505
interaction score [6]: -2.51
interaction score [7]: -1.06
interaction score [9]: 0.161
interaction score [58]: -1.68
interaction score [10]: -0.345
interaction score [11]: 0.581
interaction score [12]: -0.427
interaction score [13]: -0.95
interaction score [14]: 0.68
Binder: DKIQELKKKNEELKREIWELEKEIQELKR [4H3010-bH]
